From patent US20140336110A1
Starred links: 1 amine or outer side, 2 acyl side, 3 side chain; linkers in the order of their positions; H or OH if unused. Non-standard residues stand in square brackets, D forms with d. Primed or numbered codes have the meaning given here. No end group written: not given here. *: point of attachment. PEG12 = NCCOCCOCCOCCOCCOCCOCCOCCOCCOCCOCCOCCOCCC(=O)O; Oic = O=C(O)[C@@H]1C[C@@H]2CCCC[C@@H]2N1; Dip = N[C@H](C(=O)O)C(c1ccccc1)c1ccccc1; Ida″ = O=C(CN(CC(=O)[*:3])[*:1])[*:2]; Palmitoyl = CCCCCCCCCCCCCCCC(=O)*; β3hF = N[C@H](CC(=O)O)Cc1ccccc1; NMeD = CN[C@@H](CC(=O)O)C(=O)O; β3hP = O=C(O)C[C@@H]1CCCN1; Ach = not defined here; Dpa = not defined here

Assays:
[1] = biological target: ferroportin tagged at the C-terminus with green fluorescent protein [GFP: P42212]; experiment: cell-based or functional assay
[2] = biological target: ferroportin tagged at the C-terminus with green fluorescent protein [GFP: P42212]; experiment: cell-based or functional assay; remark: listed apart in the source

B1: PR47 (peptide)
peptide: {Palmitoyl-PEG12}-FICIP[Dip]HTD
modifications: not fully specified (C-terminus); printed as R4-F-I-C-I-P-Dpa-H-T-D; also: retroinverted, D residues underlined, underlining lost
EC50 (nM) in vitro [1]: 50 nM

B2: PR48 (peptide)
peptide: {Palmitoyl-PEG12}-[Dip]ICIP[Dip]HTD
modifications: not fully specified (C-terminus); printed as R4-Dpa-I-C-I-P-Dpa-H-T-D; also: retroinverted, D residues underlined, underlining lost
EC50 (nM) in vitro [1]: 50 nM

B3: PR49 (peptide)
peptide: {Palmitoyl-PEG12}-FICIP[Dip]H
modifications: not fully specified (C-terminus); printed as R4-F-I-C-I-P-Dpa-H; also: retroinverted, D residues underlined, underlining lost
EC50 (nM) in vitro [1]: < 10 nM

B4: PR50 (peptide)
peptide: {Palmitoyl-PEG12}-[Dip]ICIP[Dip]H
modifications: not fully specified (C-terminus); printed as R4-Dpa-I-C-I-P-Dpa-H; also: retroinverted, D residues underlined, underlining lost
EC50 (nM) in vitro [1]: < 10 nM

B5: PR51 (peptide)
peptide: {Palmitoyl-PEG12}-FVCVP[Dip]HTD
modifications: not fully specified (C-terminus); printed as R4-F-V-C-V-P-Dpa-H-T-D; also: retroinverted, D residues underlined, underlining lost
EC50 (nM) in vitro [1]: 100 nM

B6: PR52 (peptide)
peptide: {Palmitoyl-PEG12}-FLCLP[Dip]HTD
modifications: not fully specified (C-terminus); printed as R4-F-L-C-L-P-Dpa-H-T-D; also: retroinverted, D residues underlined, underlining lost
EC50 (nM) in vitro [1]: < 10 nM

B7: PR53 (peptide)
peptide: [NMeD]TH[Dpa]PICI[β3hF]
modifications: reading uncertain; also: R14 = Palmitoyl-PEG-miniPEG3- substituent, attachment not placed
EC50 (nM) in vitro [1]: 10 nM

B8: PR54 (peptide)
peptide: [NMeD]TH[Dpa][β3hP]ICI[β3hF]
modifications: reading uncertain; also: R14 = Palmitoyl-PEG-miniPEG3- substituent, attachment not placed
EC50 (nM) in vitro [1]: 10 nM

B9: PR55 (peptide)
peptide: [NMeD]TH[Dpa]P[Ach]C[Ach]F
modifications: reading uncertain; also: R14 = Palmitoyl-PEG-miniPEG3- substituent, attachment not placed
EC50 (nM) in vitro [1]: 10 nM

B10: PR56 (peptide)
peptide: [NMeD]TH[Dpa][Oic]RCR[β3hF]
modifications: reading uncertain; also: R14 = Palmitoyl-PEG-miniPEG3- substituent, attachment not placed
EC50 (nM) in vitro [1]: 15 nM

B11: PR57 (peptide)
peptide: [NMeD]TH[Dpa][β3hP]RCR[β3hF]
modifications: reading uncertain; also: R14 = Palmitoyl-PEG-miniPEG3- substituent, attachment not placed
EC50 (nM) in vitro [1]: 2 nM

B12: PR58 (peptide)
peptide: [Ida″]TH[Dpa]PICI[β3hF]
modifications: reading uncertain; also: R14 = Palmitoyl-PEG-miniPEG3- substituent, attachment not placed
EC50 (nM) in vitro [1]: 1 nM

B13: PR59 (peptide)
peptide: [Ida″]TH[Dpa][β3hP]ICI[β3hF]
modifications: reading uncertain; also: R14 = Palmitoyl-PEG-miniPEG3- substituent, attachment not placed
EC50 (nM) in vitro [1]: 2 nM

B14: PR60 (peptide)
peptide: [Ida″]TH[Dpa]P[Ach]C[Ach]F
modifications: reading uncertain; also: R14 = Palmitoyl-PEG-miniPEG3- substituent, attachment not placed
EC50 (nM) in vitro [1]: 3 nM

B15: Hep9 (Hep1-9) (peptide)
peptide: DTHFPICIF-NH2
potency against Hep25 on a mass basis, flow-cytometry assay of ferroportin-GFP internalization (times less potent than Hep25) [2]: 4 | potency against Hep25 on a molar basis, flow-cytometry assay of ferroportin-GFP internalization (times less potent than Hep25) [2]: 10

B16: Hep10 (Hep1-10 C7A) (peptide)
peptide: DTHFPIAIFC-NH2
potency against Hep25 on a mass basis, flow-cytometry assay of ferroportin-GFP internalization (times less potent than Hep25) [2]: 4 | potency against Hep25 on a molar basis, flow-cytometry assay of ferroportin-GFP internalization (times less potent than Hep25) [2]: 10

B17: Hep25 F4A (peptide)
peptide: DTHAPICIFCCGCCHRSKCGMCCKT
relative hepcidin activity (FIG. 1) [2]: > 70 % decrease

B18: Hep25 F9A (peptide)
peptide: DTHFPICIACCGCCHRSKCGMCCKT
relative hepcidin activity (FIG. 1) [2]: > 70 % decrease
